In test [1] the target is T1, huPAD2 deiminated human recombinant histone H2A (human).
T1 construct: also called H2A/p2
Kind of test: ELISA, 0.0032 ug/well. On the procedure:
(§1) Deiminated, as well as non-deiminated histones, were immobilized on 96-well ELISA plates (0.3 μg/well). CFC-1 and CFC-0 were coated at the same concentration and served as positive and negative controls, respectively, for specific anti-citrulline reactivity and as coating controls. Non-coated wells were used to test for aspecific binding of the antibodies. […] Detection of bound anti-citrulline antibodies was performed by incubating the wells with rabbit-anti-human-HRP (1:2000) for one hour at RT followed by incubation with TMB substrate. The resulting OD (y-axis) is a measure for antibody binding. H1=recombinant histone 1; H1/p2=huPAD2 recombinant histone 1; H1/p4=huPAD4 recombinant histone 1 and so forth (x-axis).
A general note: An ELISA detects its analyte on a solid surface through an enzyme-linked reagent.

Test [2] deals with T2, huPAD4 deiminated human recombinant histone H2A (human).
T2 construct: also called H2A/p4; huPAD4 deiminated histone 2A
Kind of test: ELISA, 0.0032 ug/well. As for the experimental part:
as §1

Test [3] addresses T3, human recombinant histone H2B (human).
T3 construct: Non-deiminated
In words: ELISA, 0.0032 ug/well. As for the experimental part:
as §1

The target in test [4] is T4, huPAD2 deiminated human recombinant histone H2B (human).
T4 construct: also called H2B/p2
Kind of test: ELISA, 0.0032 ug/well. On the procedure: as §1

Test [5] has as its target T5, huPAD4 deiminated human recombinant histone H2B (human).
T5 construct: also called H2B/p4
In words: ELISA, 0.0032 ug/well. On the procedure:
as §1

The target of test [6] is T6, huPAD2 deiminated human recombinant histone H3 (human).
T6 construct: also called H3/p2
Kind of test: ELISA, 0.0032 ug/well. On the procedure: as §1

The target in test [7] is T7, huPAD4 deiminated human recombinant histone H3 (human).
T7 construct: also called H3/p4
Kind of test: ELISA, 0.0032 ug/well. On the procedure: as §1

Test [8] has as its target human recombinant histone H4 (human, UniProt P62805 2-103). Kind of test: ELISA, 0.0032 ug/well. On the procedure: as §1
The target of test [9] is T8, CFC-1.
T8 construct: Positive control for anti-citrulline reactivity; also called cfc1 XG
Kind of test: ELISA, 0.0032 ug/well. On the procedure: as §1

The target in test [10] is T8, CFC-1. In words: peptide ELISA, 0.0023 ug/well. On the procedure: (§2) Biotin and citrulline-containing peptides derived from histone 2A were immobilized on NEUTRAVIDIN®-coated 96-well ELISA plates (0.3 μg/well). CFC-1 and CFC-0 were coated at the same concentration and served as positive and negative controls respectively for specific anti-citrulline reactivity and as coating controls. Non-coated wells were used to test for aspecific binding of the antibodies. […] Detection of bound anti-citrulline antibodies was performed by incubating the wells with rabbit-anti-human-HRP (1:2000) for one hour at RT followed by incubation with TMB substrate. The resulting OD (y-axis) is a measure for antibody binding.
(§3) Ninety-six-well ELISA plates were coated with NEUTRAVIDIN® (0.1 μg/well) by overnight incubation at 4° C. Wells were washed five times with PBS-TWEEN®-20 (PBS-T) and blocked by a one-hour incubation with PBS-T+1% Bovine serum albumin (BSA) at room temperature (RT). After five more washes with PBS-T, wells were incubated for one hour at RT with histone-derived citrulline and biotin-containing peptides (0.3 μg/well). […] Wells were washed five times with PBS-T and incubated with rabbit-anti-human-HRP (1:2000) for one hour at RT followed by five washes with PBS-T and three wash steps with PBS. Wells were incubated for five minutes with TMB substrate before stopping the reaction with 2 M H₂SO₄. Optical density was measured by 450 nm and is a measure for the affinity of the antibodies used.

In test [11] the target is T9, Histone 2A citrulline-containing peptide 1 (human, also: biotin label).
T9 construct: also called AAASGXGKQGGK
T9 peptide: AAASG[Cit]GKQGGK
Kind of test: peptide ELISA, 0.0023 ug/well. As for the experimental part: as §2, §3

Test [12] concerns the target T10, Histone 2A citrulline-containing peptide 4 (human, also: biotin label).
T10 peptide: QFPVG[Cit]VHRLLR
Kind of test: peptide ELISA, 0.0023 ug/well. As for the experimental part:
as §2, §3

Test [13] concerns the target T11, Histone 2A citrulline-containing peptide 5 (human, also: biotin label).
T11 peptide: VGRVH[Cit]LLRKGN
In words: peptide ELISA, 0.0023 ug/well. As for the experimental part: as §2, §3

Test [14] concerns the target T12, Histone 2A citrulline-containing peptide 7 (human, also: biotin label).
T12 peptide: GNYSE[Cit]VGAGAP
Kind of test: peptide ELISA, 0.0023 ug/well. On the procedure: as §2, §3

For test [15], the target named is T13, Histone 2A citrulline-containing peptide 8 (human, also: biotin label).
T13 peptide: AGNAA[Cit]DNKKTR
In words: peptide ELISA, 0.0023 ug/well. As for the experimental part: as §2, §3

Test [16] concerns the target T14, Histone 2A citrulline-containing peptide 10 (human, also: biotin label).
T14 peptide: TRIIP[Cit]HLQLAI
In words: peptide ELISA, 0.0023 ug/well. On the procedure:
as §2, §3

For test [17], the target named is T15, Histone 2A citrulline-containing peptide 11 (human, also: biotin label).
T15 peptide: LQLAI[Cit]NDEELN
In words: peptide ELISA, 0.0023 ug/well. As for the experimental part: as §2, §3

The target of test [18] is T16, Histone 2A citrulline-containing peptide 12 (human, also: biotin label).
T16 peptide: NKLLG[Cit]VTIAQG
In words: peptide ELISA, 0.0023 ug/well. On the procedure:
as §2, §3

For test [19], the target named is T8, CFC-1. Kind of test: peptide ELISA, 0.000128 ug/well. On the procedure: as §2, with “fibrinogen and vimentin” for “histone 2A”
(§4) Biotin-labeled and citrulline-containing fibrinogen and vimentin peptides (Table 5) were also tested for reactivity with the therapeutic antibodies. Peptides were coated on 96-well NEUTRAVIDIN®-ELISA plates.

A further test deals with T17, msFibα XG (mouse, X at position 8 is citrulline; biotin label).
T17 peptide: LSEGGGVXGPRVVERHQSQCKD
Kind of test: peptide ELISA, 0.000128 ug/well. On the procedure:
as §2, with “fibrinogen and vimentin” for “histone 2A”
as §4

The target of another test is T18, huFibα XG (human, X at position 8 is citrulline; biotin label).
T18 peptide: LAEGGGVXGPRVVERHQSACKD
In words: peptide ELISA, 0.000128 ug/well. As for the experimental part: as §2, with “fibrinogen and vimentin” for “histone 2A”
as §4

Another test deals with T19, msFibβ XG (mouse, also: biotin label).
T19 peptide: EPTDSLDA[Cit]GHRPVDRR
Kind of test: peptide ELISA, 0.000128 ug/well. On the procedure:
as §2, with “fibrinogen and vimentin” for “histone 2A”
as §4

Non-standard residues stand in square brackets, D forms with d. No end group written: not given here. Cit = NC(=O)NCCC[C@H](N)C(=O)O

B1: RhmAb2.102 (antibody, human IgG1, lambda)
heavy: not shown
light: QSVLTQPPSMSAAPGQKVTISCSGSSSNIGNNYVSWYQQVPGTAPKLLIYDDNKRPSGIPGRFSGSKSATSATLGITGLQAGDEADYYCGSWDDNLSVVLFGGGTKLTVLGQPKAAPSVTLFPPSSEELQANKATLVCLISDFYPGAVTVAWKADSSPVKAGVETTTPSKQSNNKYAASSYLSLTPEQWKSHRSYSCQVTHEGSTVEKTVAPTECS
notes: Human IgG1 lambda; also called Rhm2.102
Turning to B1, the OD came to 0.161 OD in [1]; 0.135 OD in [2]; 0.05 OD in [3]; 0.052 OD in [4]; 0.052 OD in [5]; 0.08 OD in test [6]. The OD in test [7] amounted to 0.065 OD; in test [8], 0.06 OD; in the test with CFC-1 [9] it was 0.178 OD; with CFC-1 [10] it was 0.916 OD; in test [11], 0.3 OD; in test [12] it was 0.078 OD. In addition, the OD in [13] was 0.063 OD; in [14], 0.064 OD; in test [15] it was 0.06 OD; in test [16], 0.068 OD; in test [17], 0.057 OD; in test [18], 0.059 OD. Moreover, the OD was 0.288 OD with CFC-1 [19], 0.119 OD with msFibα XG, 0.115 OD with huFibα XG and 0.118 OD with msFibβ XG.

(Values after patent publication US20170298146A1 (MODIQUEST B V, published 2017).)
